# Measured values published in patent US20140072613A1 (published 2014).
# T1: EphB1(h) (human, UniProt P54762 564-984, limits assumed)
# T1 sequence (looked up): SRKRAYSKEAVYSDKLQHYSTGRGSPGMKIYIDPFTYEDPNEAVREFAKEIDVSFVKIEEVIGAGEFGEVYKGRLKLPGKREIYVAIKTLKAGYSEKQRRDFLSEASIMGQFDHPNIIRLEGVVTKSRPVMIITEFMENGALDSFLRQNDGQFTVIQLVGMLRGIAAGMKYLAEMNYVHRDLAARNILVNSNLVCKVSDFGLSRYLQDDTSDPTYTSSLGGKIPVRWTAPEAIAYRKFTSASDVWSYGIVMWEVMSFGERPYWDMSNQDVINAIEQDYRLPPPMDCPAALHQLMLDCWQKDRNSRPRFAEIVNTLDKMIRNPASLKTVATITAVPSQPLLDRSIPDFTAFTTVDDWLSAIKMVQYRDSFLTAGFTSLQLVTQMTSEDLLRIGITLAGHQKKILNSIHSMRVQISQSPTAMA
# T2: Ret(V804L)(h) (human, UniProt P07949 658-1114, limits assumed)
# T2 sequence (looked up): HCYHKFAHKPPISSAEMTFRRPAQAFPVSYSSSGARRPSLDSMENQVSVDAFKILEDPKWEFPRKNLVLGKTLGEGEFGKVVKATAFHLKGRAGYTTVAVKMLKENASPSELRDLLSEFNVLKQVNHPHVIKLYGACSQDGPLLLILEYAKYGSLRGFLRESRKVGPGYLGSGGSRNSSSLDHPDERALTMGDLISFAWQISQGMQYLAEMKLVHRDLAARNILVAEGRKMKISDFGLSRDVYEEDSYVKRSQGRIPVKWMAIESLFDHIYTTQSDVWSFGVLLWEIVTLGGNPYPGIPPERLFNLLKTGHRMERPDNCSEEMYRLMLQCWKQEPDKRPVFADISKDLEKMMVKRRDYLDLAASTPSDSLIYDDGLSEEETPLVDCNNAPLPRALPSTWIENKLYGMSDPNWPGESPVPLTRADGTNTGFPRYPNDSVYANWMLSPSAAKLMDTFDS
# T3: Mer(h) (human, UniProt Q12866 578-872, limits assumed)
# T3 sequence (looked up): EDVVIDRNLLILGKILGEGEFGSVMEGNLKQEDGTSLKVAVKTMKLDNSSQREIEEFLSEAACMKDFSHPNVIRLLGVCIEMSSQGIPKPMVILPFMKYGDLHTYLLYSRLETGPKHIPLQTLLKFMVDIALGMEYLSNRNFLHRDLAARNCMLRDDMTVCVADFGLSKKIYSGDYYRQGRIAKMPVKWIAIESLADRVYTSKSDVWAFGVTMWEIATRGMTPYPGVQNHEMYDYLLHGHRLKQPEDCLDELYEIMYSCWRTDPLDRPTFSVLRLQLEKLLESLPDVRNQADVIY
# T4: Aurora-A(h) (human, UniProt O14965 1-403)
# T4 sequence (looked up): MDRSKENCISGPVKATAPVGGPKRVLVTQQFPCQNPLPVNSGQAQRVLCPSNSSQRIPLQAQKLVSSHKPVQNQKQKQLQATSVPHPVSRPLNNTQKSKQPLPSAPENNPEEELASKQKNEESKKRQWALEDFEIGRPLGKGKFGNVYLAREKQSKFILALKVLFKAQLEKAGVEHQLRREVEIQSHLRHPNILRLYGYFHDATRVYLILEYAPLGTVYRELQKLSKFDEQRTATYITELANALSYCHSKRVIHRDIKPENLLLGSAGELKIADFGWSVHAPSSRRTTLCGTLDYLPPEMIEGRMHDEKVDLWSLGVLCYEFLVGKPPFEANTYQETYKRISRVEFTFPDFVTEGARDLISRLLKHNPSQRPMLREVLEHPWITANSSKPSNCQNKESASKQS
# T5: GCK(h) (human, UniProt Q12851 1-820, limits assumed)
# T5 sequence (looked up): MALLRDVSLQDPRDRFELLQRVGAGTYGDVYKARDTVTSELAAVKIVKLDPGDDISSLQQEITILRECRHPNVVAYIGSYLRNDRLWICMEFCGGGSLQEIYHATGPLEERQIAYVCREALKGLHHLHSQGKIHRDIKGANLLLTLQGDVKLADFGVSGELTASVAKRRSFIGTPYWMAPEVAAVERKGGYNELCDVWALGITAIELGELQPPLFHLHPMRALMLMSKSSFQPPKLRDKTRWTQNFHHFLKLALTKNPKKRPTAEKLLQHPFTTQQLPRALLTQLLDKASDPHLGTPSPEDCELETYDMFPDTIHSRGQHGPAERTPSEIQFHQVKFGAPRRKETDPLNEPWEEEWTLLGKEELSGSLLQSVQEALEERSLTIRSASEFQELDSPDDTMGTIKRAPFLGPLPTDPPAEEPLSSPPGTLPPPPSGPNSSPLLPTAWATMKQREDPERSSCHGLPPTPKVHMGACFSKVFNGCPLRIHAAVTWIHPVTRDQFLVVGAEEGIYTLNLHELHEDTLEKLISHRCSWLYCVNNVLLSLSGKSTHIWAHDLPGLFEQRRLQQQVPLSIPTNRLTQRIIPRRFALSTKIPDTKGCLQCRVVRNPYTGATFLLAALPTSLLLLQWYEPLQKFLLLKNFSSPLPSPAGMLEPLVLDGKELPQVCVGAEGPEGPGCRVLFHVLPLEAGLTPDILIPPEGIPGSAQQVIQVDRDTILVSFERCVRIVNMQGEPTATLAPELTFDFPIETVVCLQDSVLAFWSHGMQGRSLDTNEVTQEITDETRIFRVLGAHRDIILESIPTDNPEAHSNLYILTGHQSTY
# Assays:
# Test in all cases: cell-based or functional assay
# [1] = biological target: MARK1(h) (human, UniProt Q9P0L2 1-795, limits assumed)
# [2] = biological target: T1, EphB1(h)
# [3] = biological target: Lck(h) activated (human, UniProt P06239 1-509)
# [4] = biological target: T2, Ret(V804L)(h)
# [5] = biological target: T3, Mer(h)
# [6] = biological target: Pim-1(h) (human, UniProt P11309 1-313)
# [7] = biological target: T4, Aurora-A(h)
# [8] = biological target: PKCα(h) (human, UniProt P17252 1-672)
# [9] = biological target: Mnk2(h) (human, UniProt Q9HBH9 1-465, limits assumed)
# [10] = biological target: CK1γ2(h) (human, UniProt P78368 1-415)
# [11] = biological target: T5, GCK(h)
# [12] = biological target: VRK2(h) (human, UniProt Q86Y07 1-508, limits assumed)
# VRK2(h), sequence (Q86Y07 whole entry): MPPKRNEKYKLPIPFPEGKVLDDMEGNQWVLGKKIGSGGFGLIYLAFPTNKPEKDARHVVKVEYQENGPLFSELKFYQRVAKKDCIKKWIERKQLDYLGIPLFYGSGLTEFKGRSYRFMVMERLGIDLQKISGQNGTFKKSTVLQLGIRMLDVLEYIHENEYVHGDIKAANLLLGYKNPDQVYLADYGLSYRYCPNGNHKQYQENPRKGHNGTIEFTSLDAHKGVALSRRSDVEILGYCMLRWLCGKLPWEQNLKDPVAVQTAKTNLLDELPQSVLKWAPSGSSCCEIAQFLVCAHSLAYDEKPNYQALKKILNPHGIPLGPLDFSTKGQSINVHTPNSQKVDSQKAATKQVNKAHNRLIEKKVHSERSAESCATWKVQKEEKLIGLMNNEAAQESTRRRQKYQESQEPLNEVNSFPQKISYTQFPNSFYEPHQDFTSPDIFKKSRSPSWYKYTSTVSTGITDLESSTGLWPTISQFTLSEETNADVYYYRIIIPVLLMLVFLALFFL
# MARK1(h), sequence (Q9P0L2 whole entry): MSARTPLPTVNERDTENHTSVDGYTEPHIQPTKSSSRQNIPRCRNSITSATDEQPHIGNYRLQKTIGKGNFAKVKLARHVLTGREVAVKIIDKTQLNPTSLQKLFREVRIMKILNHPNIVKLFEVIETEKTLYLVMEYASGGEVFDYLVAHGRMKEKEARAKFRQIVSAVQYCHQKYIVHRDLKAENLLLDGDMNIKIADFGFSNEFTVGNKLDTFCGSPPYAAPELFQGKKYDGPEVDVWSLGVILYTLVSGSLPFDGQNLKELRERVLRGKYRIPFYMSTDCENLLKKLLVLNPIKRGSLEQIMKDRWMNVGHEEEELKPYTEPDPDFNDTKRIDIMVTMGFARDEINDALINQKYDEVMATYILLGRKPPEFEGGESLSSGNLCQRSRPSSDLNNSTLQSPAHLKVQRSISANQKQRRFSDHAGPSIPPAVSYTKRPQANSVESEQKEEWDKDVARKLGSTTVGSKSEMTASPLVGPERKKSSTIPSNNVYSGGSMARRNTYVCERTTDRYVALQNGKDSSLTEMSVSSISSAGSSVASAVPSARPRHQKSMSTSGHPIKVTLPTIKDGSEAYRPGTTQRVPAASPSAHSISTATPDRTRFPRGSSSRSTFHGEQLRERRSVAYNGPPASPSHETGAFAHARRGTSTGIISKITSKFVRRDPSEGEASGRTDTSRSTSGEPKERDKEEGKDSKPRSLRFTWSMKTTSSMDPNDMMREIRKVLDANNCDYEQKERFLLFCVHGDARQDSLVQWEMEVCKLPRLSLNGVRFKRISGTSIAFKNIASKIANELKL
# Mnk2(h), sequence (Q9HBH9 whole entry): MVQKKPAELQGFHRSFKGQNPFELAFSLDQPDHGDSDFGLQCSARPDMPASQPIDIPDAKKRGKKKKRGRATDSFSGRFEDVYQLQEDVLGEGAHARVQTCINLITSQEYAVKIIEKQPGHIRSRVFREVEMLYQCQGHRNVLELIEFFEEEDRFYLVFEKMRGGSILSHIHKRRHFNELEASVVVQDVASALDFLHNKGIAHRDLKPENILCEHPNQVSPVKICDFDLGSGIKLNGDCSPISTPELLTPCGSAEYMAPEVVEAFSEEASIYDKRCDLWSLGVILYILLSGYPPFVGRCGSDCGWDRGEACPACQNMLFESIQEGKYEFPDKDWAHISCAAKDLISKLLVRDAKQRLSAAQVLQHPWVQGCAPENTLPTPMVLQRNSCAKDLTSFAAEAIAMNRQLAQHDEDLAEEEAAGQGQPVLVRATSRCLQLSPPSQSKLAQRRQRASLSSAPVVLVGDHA
# Lck(h) activated, sequence (P06239 whole entry): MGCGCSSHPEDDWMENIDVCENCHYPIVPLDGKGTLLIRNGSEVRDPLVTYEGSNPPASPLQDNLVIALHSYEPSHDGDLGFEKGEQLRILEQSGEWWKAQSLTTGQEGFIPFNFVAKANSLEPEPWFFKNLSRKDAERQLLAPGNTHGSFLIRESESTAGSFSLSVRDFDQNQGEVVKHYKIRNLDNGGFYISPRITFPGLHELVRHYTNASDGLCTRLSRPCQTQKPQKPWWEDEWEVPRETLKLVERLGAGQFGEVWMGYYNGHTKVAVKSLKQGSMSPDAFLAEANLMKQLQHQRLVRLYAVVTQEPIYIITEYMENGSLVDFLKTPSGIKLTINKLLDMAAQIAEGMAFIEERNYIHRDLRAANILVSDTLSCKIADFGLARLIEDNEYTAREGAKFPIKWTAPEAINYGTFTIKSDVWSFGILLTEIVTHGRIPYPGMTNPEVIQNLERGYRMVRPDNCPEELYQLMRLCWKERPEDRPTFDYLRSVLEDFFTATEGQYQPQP
# Pim-1(h), sequence (P11309 whole entry): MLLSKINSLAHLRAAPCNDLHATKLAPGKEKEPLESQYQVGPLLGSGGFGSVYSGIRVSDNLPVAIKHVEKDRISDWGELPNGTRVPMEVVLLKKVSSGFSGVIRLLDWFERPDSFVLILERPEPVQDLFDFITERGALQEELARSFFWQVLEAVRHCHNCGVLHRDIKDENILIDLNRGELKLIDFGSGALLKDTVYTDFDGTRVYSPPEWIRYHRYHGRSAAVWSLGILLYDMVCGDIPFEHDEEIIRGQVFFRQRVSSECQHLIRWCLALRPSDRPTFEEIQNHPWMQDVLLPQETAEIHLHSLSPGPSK
# CK1γ2(h), sequence (P78368 whole entry): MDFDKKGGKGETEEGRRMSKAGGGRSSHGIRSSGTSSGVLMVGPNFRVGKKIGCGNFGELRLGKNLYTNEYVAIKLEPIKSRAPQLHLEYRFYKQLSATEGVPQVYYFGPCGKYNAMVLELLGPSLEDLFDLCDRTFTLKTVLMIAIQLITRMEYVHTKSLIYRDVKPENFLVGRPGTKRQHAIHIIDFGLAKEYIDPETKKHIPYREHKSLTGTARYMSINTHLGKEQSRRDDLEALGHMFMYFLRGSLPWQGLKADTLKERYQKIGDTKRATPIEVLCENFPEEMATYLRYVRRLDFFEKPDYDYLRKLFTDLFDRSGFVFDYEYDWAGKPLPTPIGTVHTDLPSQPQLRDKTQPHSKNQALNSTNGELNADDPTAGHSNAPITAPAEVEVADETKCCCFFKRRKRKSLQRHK
Binder,"% activity, 100 µM [1] [%]","% activity, 100 µM [2] [%]","% activity, 100 µM [3] [%]","% activity, 100 µM [4] [%]","% activity, 100 µM [5] [%]","% activity, 100 µM [6] [%]","% activity, 100 µM [7] [%]","% activity, 100 µM [8] [%]","% activity, 100 µM [9] [%]","% activity, 100 µM [10] [%]","% activity, 100 µM [11] [%]","% activity, 100 µM [12] [%]"
FAKLAARLYRKALARQLGVAA [MMI-0300],132,44,243,79,52,8,92,89,89,123,70,161
KAFAKLAARLYRKALARQLGVAA [MMI-0400],120,58,216,73,50,7,119,86,86,114,66,185
